What is called Kd is the constant that tells how readily two partners part at equilibrium. Broadly, the koff is the first-order rate constant of dissociation. What is called kon is the rate constant with which the complex forms. A word on the EC50 (read off the curve): it is the concentration at which the effect is half-maximal.

The values that follow come from patent US20160185850A1 (ESBATECH AN ALCON BIOMEDICAL RESEARCH UNIT, published 2016).

The target in assay [1] is T1, recombinant human TNFα (human, UniProt P01375 77-233). The experiment in a line: cell-based or functional assay.
Assay [2] concerns the target T1, recombinant human TNFα. The assay can be described thus: cell-based or functional assay. The source holds these as a separate data set.
Assay [3] concerns the target T1, recombinant human TNFα. The assay can be described thus: cell-based or functional assay. This is another data set of the same source.
The target of assay [4] is T1, recombinant human TNFα. The assay can be described thus: cell-based or functional assay. This is another data set of the same source.
Assay [5] has as its target T1, recombinant human TNFα. The experiment in a line: surface plasmon resonance (BIACore).
Assay [6] has as its target T1, recombinant human TNFα. The assay can be described thus: ELISA on recombinant human TNFα. (ELISA stands for enzyme-linked immunosorbent assay.)
The target in assay [7] is T1, recombinant human TNFα. The assay can be described thus: ELISA dilution series on TNFα after 3 days at 37°C in human serum (column 'serum').
Assay [8] has as its target T1, recombinant human TNFα. The experiment in a line: ELISA dilution series on TNFα after 3 days at 37°C in human urine (column 'urine').
In assay [9] the target is T1, recombinant human TNFα. The assay can be described thus: ELISA dilution series on TNFα after 3 days at 37°C in assay buffer TBSTM (positive control).
Assay [10] deals with T1, recombinant human TNFα. The assay can be described thus: ELISA dilution series on TNFα after 3 days at 37°C in pig vitreous body fluid (column 'vitreous body fluid').
In assay [11] the target is T1, recombinant human TNFα. The assay can be described thus: ELISA dilution series on TNFα after 3 days at 37°C in pig anterior chamber fluid (column 'anterior chamber fluid').
Assay [12] addresses T1, recombinant human TNFα. The assay can be described thus: ELISA on recombinant human TNFα. The source holds these as a separate data set.

Like-named read-outs stand apart in the source and are kept apart here.

T1 sequence (P01375 77-233 limits assumed): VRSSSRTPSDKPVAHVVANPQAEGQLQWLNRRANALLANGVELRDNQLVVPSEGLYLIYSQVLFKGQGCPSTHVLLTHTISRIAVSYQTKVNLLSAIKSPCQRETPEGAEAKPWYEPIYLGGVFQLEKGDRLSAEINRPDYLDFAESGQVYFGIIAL

B1: TB-A Fab antibody (Fab, V domains shown)
VH: QVQLVQSGAEVKKPGASVKVSCTASGYTFTHYGMNWVRQAPGKGLEWMGWINTYTGEPTYADKFKDRFTFSLETSASTVYMELTSLTSDDTAVYYCARERGDAMDYWGQGTLVTVSS
VL: DIVMTQSPSSLSASVGDRVTLTCTASQSVSNDVVWYQQRPGKAPKLLIYSAFNRYTGVPSRFSGRGYGTDFTLTISSLQPEDVAVYYCQQDYNSPRTFGQGTKLEVKR
Regarding B1, the “IC50 in the L929 assay, Fab format relative to scFv format of TB-A” value with recombinant human TNFα [1] was ~2 fold (IC50 Fab / IC50 scFv). Moreover, in the assay with recombinant human TNFα [2], the “IC50, inhibition of human TNFα-induced cytotoxicity in mouse L929 fibroblasts” value (shortened to “IC50, inhibition”) came out at 0.0659 µg/mL.

B2: TB-wt (scFv)
scFv: DIVMTQTPKFLLVSAGDRVTITCTASQSVSNDVVWYQQKPGQSPKMLMYSAFNRYTGVPDRFTGRGYGTDFTFTISSVQAEDLAVYFCQQDYNSPRTFGGGTKLEIKRGGGGSGGGGSGGGGSGGGGSQIQLVQSGPELKKPGETVKISCKASGYTFTHYGMNWVKQAPGKGLKWMGWINTYTGEPTYADDFKEHFAFSLETSASTVFLQINNLKNEDTATYFCARERGDAMDYWGQGTSVTVSS
Turning to B2, the “IC50, inhibition” value with recombinant human TNFα [3] came out at 0.161 µg/mL.

B3: TB-A (scFv)
scFv: DIVMTQSPSSLSASVGDRVTLTCTASQSVSNDVVWYQQRPGKAPKLLIYSAFNRYTGVPSRFSGRGYGTDFTLTISSLQPEDVAVYYCQQDYNSPRTFGQGTKLEVKRGGGGSGGGGSGGGGSGGGGSQVQLVQSGAEVKKPGASVKVSCTASGYTFTHYGMNWVRQAPGKGLEWMGWINTYTGEPTYADKFKDRFTFSLETSASTVYMELTSLTSDDTAVYYCARERGDAMDYWGQGTLVTVSS
notes: also called TB-A scFv; TB-A scFv antibody
B3: the “Relative potency: EC50X/EC50TB-A, KYM-1 cells” value with recombinant human TNFα [4] amounted to 1 ratio EC50X/EC50TB-A. For the same molecule, the “Relative potency: EC50X/EC50TB-A, L929 cells” value with recombinant human TNFα [4] amounted to 1 ratio EC50X/EC50TB-A. Further, the entries for the “IC50, inhibition” value with recombinant human TNFα [3] and with recombinant human TNFα [2] were 0.0144 µg/mL and 0.0297 µg/mL, respectively. The Kd in the assay with recombinant human TNFα [5] amounted to 0.8 nM; with recombinant human TNFα [7] it was 3.62 nM; in the assay with recombinant human TNFα [8], 4.14 nM; with recombinant human TNFα [9], 3.39 nM; with recombinant human TNFα [10], 3.18 nM; in the assay with recombinant human TNFα [11] it was 2.97 nM. Moreover, in the assay with recombinant human TNFα [5], the dissociation rate constant (koff) was determined as 0.00044 s⁻¹. For the same molecule, in the assay with recombinant human TNFα [5], the kon was 500000 M⁻¹ s⁻¹. The 50% effective concentration (EC50 (read off the curve)) with recombinant human TNFα [6] was approximately 3 nM.

B4: TB-AB (scFv)
scFv (VL of TB-A - (GGGGS)4 linker - VH of TB-B): DIVMTQSPSSLSASVGDRVTLTCTASQSVSNDVVWYQQRPGKAPKLLIYSAFNRYTGVPSRFSGRGYGTDFTLTISSLQPEDVAVYYCQQDYNSPRTFGQGTKLEVKRGGGGSGGGGSGGGGSGGGGSQVQLVQSGAEVKKPGASVKVSCTASGYSFTHYGMNWVRQAPGQGLEWMGWINTYTGEPTYADKFKDRVTLTRDTSIGTVYMELTSLTSDDTAVYYCARERGDAMDYWGQGTLVTVSS
notes: Domain-shuffled variant: VL domain of TB-A with VH domain of TB-B
With B4, the 50% effective concentration (EC50 (read off the curve)) with recombinant human TNFα [6] is approximately 3 nM.

B5: TB-BA (scFv)
scFv (VL of TB-B - (GGGGS)4 linker - VH of TB-A): DIVLTQSPSSLSASVGDRVTLTCTASQSVSNDVVWYQQRPGKAPKRLIYSAFNRYTGVPSRFSGSGSGTEFTLTISSLQPEDVAVYYCQQDYNSPRTFGQGTKLEVKRGGGGSGGGGSGGGGSGGGGSQVQLVQSGAEVKKPGASVKVSCTASGYTFTHYGMNWVRQAPGKGLEWMGWINTYTGEPTYADKFKDRFTFSLETSASTVYMELTSLTSDDTAVYYCARERGDAMDYWGQGTLVTVSS
notes: Domain-shuffled variant: VL domain of TB-B with VH domain of TB-A
Turning to B5, in the assay with recombinant human TNFα [6], the “EC50 (read off the curve)” value was approximately 700 nM.

B6: TB-A L_R65S (scFv)
scFv: DIVMTQSPSSLSASVGDRVTLTCTASQSVSNDVVWYQQRPGKAPKLLIYSAFNRYTGVPSRFSGSGYGTDFTLTISSLQPEDVAVYYCQQDYNSPRTFGQGTKLEVKRGGGGSGGGGSGGGGSGGGGSQVQLVQSGAEVKKPGASVKVSCTASGYTFTHYGMNWVRQAPGKGLEWMGWINTYTGEPTYADKFKDRFTFSLETSASTVYMELTSLTSDDTAVYYCARERGDAMDYWGQGTLVTVSS
notes: also called TB-A L65
Turning to B6, the binding result in the assay with recombinant human TNFα [12] is “binds”.
